Measured values: patent publication US20170037110A1 (IMMATICS BIOTECHNOLOGIES, published 2017)

B1: FLDPYCSASV (peptide)
peptide: FLDPYCSASV
B2: FLAKDFNFL (peptide)
peptide: FLAKDFNFL
B3: VMYADIGGMDI (peptide)
peptide: VMYADIGGMDI
B4: FLAEDPKVTL (peptide)
peptide: FLAEDPKVTL
B5: YLRSVGDGETV (peptide)
peptide: YLRSVGDGETV
B6: LLQELVLFL (peptide)
peptide: LLQELVLFL
B7: FLVEKQPPQV (peptide)
peptide: FLVEKQPPQV
B8: AVMESIQGV (peptide)
peptide: AVMESIQGV
B9: FLLEDDIHVS (peptide)
peptide: FLLEDDIHVS
B10: YLLHEKLNL (peptide)
peptide: YLLHEKLNL
B11: VLIANLEKL (peptide)
peptide: VLIANLEKL
B12: GLLGEKTQDLIGV (peptide)
peptide: GLLGEKTQDLIGV
B13: GLLEKLTAI (peptide)
peptide: GLLEKLTAI
B14: GLIEDYEALL (peptide)
peptide: GLIEDYEALL
B15: GLLHLTLLL (peptide)
peptide: GLLHLTLLL
B16: YVLEDLEVTV (peptide)
peptide: YVLEDLEVTV
B17: RLLAQVPGL (peptide)
peptide: RLLAQVPGL
B18: YLASDEITTV (peptide)
peptide: YLASDEITTV
B19: ALFDAQAQV (peptide)
peptide: ALFDAQAQV
B20: SLMPHIPGL (peptide)
peptide: SLMPHIPGL
B21: YLYNNMIAKI (peptide)
peptide: YLYNNMIAKI
B22: KIFDIDEAEEGV (peptide)
peptide: KIFDIDEAEEGV
B23: TLWYRSPEV (peptide)
peptide: TLWYRSPEV
B24: ALIENLTHQI (peptide)
peptide: ALIENLTHQI
B25: LLMPIPEGLTL (peptide)
peptide: LLMPIPEGLTL
B26: SVAEGRALMSV (peptide)
peptide: SVAEGRALMSV
B27: SLSEIVPCL (peptide)
peptide: SLSEIVPCL
B28: FLFDTKPLIV (peptide)
peptide: FLFDTKPLIV
B29: LLINSVFHV (peptide)
peptide: LLINSVFHV
B30: KLLGKVETA (peptide)
peptide: KLLGKVETA
B31: GLNDRSDAV (peptide)
peptide: GLNDRSDAV
B32: MLLTKLPTI (peptide)
peptide: MLLTKLPTI
B33: KMWEELPEVV (peptide)
peptide: KMWEELPEVV
B34: LLDPNVKSIFV (peptide)
peptide: LLDPNVKSIFV
B35: GLSDGNPSL (peptide)
peptide: GLSDGNPSL
B36: YTLPIASSIRL (peptide)
peptide: YTLPIASSIRL
B37: ALLEDSCHYL (peptide)
peptide: ALLEDSCHYL
B38: KLYSVVSQL (peptide)
peptide: KLYSVVSQL
B39: NVPDSFNEV (peptide)
peptide: NVPDSFNEV
B40: LAVHPSGVAL (peptide)
peptide: LAVHPSGVAL
B41: LLADELITV (peptide)
peptide: LLADELITV
B42: AMATESILHFA (peptide)
peptide: AMATESILHFA
B43: SLWPSPEQL (peptide)
peptide: SLWPSPEQL
B44: LLLNEEALAQI (peptide)
peptide: LLLNEEALAQI
B45: SLNHFTHSV (peptide)
peptide: SLNHFTHSV
B46: FLLEPGNLEV (peptide)
peptide: FLLEPGNLEV
B47: SLMEDQVLQL (peptide)
peptide: SLMEDQVLQL
B48: KLNAEVACV (peptide)
peptide: KLNAEVACV
B49: SLIEKVTQL (peptide)
peptide: SLIEKVTQL
B50: KLIDDQDISISL (peptide)
peptide: KLIDDQDISISL
B51: RLAEVGQYEQV (peptide)
peptide: RLAEVGQYEQV
B52: ALQPEPIKV (peptide)
peptide: ALQPEPIKV
B53: KLWTGGLDNTV (peptide)
peptide: KLWTGGLDNTV
B54: ALLPASGQIAL (peptide)
peptide: ALLPASGQIAL
B55: SLFDGFADGLGV (peptide)
peptide: SLFDGFADGLGV
B56: VLLQKIVSA (peptide)
peptide: VLLQKIVSA
B57: LLLAHIIAL (peptide)
peptide: LLLAHIIAL
B58: SVAPNLPAV (peptide)
peptide: SVAPNLPAV
B59: FLLQHVQEL (peptide)
peptide: FLLQHVQEL
B60: TLLVKVFSV (peptide)
peptide: TLLVKVFSV
B61: SLAPGDVVRQV (peptide)
peptide: SLAPGDVVRQV
B62: KLLEVSDDPQV (peptide)
peptide: KLLEVSDDPQV
B63: KINDTIYEV (peptide)
peptide: KINDTIYEV
B64: SLFGNSGILENV (peptide)
peptide: SLFGNSGILENV
B65: AVGPASILKEV (peptide)
peptide: AVGPASILKEV
B66: ALMERTGYSMV (peptide)
peptide: ALMERTGYSMV
B67: ILAQEQLVVGV (peptide)
peptide: ILAQEQLVVGV
B68: YQIPRTFTL (peptide)
peptide: YQIPRTFTL
B69: TLAPGEVLRSV (peptide)
peptide: TLAPGEVLRSV
B70: YLDPALELGPRNV (peptide)
peptide: YLDPALELGPRNV
B71: SMLEPVPEL (peptide)
peptide: SMLEPVPEL
B72: FIFSEKPVFV (peptide)
peptide: FIFSEKPVFV
B73: VLLEAGEGLVTI (peptide)
peptide: VLLEAGEGLVTI

Biological target: T1, HLA-A*02:01 (human)
T1 construct: monomers captured on streptavidin plates; also called MHC class I
Test: UV peptide exchange ELISA
Method in brief: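 Peptide-MHC complexes formed by UV-triggered exchange of a cleavable peptide for the test peptide, with stabilised complexes indicating binding. Exchange products diluted 100 fold onto streptavidin-coated wells, 1h at 37° C.; HRP anti-β2m (2 μg/ml), TMB, absorbance at 450 nm gives exchange yield.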

Row | Binder | peptide exchange yield [%]
1 | B1 | 20 to 50
2 | B2 | 50 to 75
3 | B3 | 50 to 75
4 | B4 | 50 to 75
5 | B5 | 50 to 75
6 | B6 | 50 to 75
7 | B7 | 50 to 75
8 | B8 | 50 to 75
9 | B9 | 50 to 75
10 | B10 | 50 to 75
11 | B11 | ≥ 75
12 | B12 | 50 to 75
13 | B13 | 50 to 75
14 | B14 | 50 to 75
15 | B15 | 50 to 75
16 | B16 | 20 to 50
17 | B17 | 50 to 75
18 | B18 | 50 to 75
19 | B19 | 50 to 75
20 | B20 | 50 to 75
21 | B21 | 50 to 75
22 | B22 | 20 to 50
23 | B23 | 20 to 50
24 | B24 | 20 to 50
25 | B25 | 50 to 75

Row | Binder | peptide exchange yield [%]
26 | B26 | 50 to 75
27 | B27 | 50 to 75
28 | B28 | 50 to 75
29 | B29 | 50 to 75
30 | B30 | 50 to 75
31 | B31 | 20 to 50
32 | B32 | 50 to 75
33 | B33 | 50 to 75
34 | B34 | 50 to 75
35 | B35 | 20 to 50
36 | B36 | 50 to 75
37 | B37 | 50 to 75
38 | B38 | 20 to 50
39 | B39 | 50 to 75
40 | B40 | 10 to 20
41 | B41 | 50 to 75
42 | B42 | 50 to 75
43 | B43 | 20 to 50
44 | B44 | 50 to 75
45 | B45 | 50 to 75
46 | B46 | ≥ 75
47 | B47 | 50 to 75
48 | B48 | 50 to 75
49 | B49 | 50 to 75
50 | B50 | 50 to 75

Row | Binder | peptide exchange yield [%]
51 | B51 | 20 to 50
52 | B52 | 20 to 50
53 | B53 | 50 to 75
54 | B54 | 50 to 75
55 | B55 | 50 to 75
56 | B56 | 50 to 75
57 | B57 | 20 to 50
58 | B58 | 50 to 75
59 | B59 | 50 to 75
60 | B60 | 50 to 75
61 | B61 | 20 to 50
62 | B62 | 50 to 75
63 | B63 | 50 to 75
64 | B64 | 50 to 75
65 | B65 | 20 to 50
66 | B66 | 50 to 75
67 | B67 | 50 to 75
68 | B68 | 20 to 50
69 | B69 | 50 to 75
70 | B70 | 50 to 75
71 | B71 | 50 to 75
72 | B72 | 50 to 75
73 | B73 | 50 to 75
